Experiment [1] deals with wild-type human APC segment 3 of Exon 15 (codons 1,099 to 1,696) with N-terminal VSV-G and HSV epito (human) (UniProt P25054).
Experiment [2] has as its target human glutathione-s-transferase A2 (GST A2), cell-free expressed from pETBlue-2 with C-terminal HSV epitope tag and polyhistidine tag (human) (UniProt P09210). Briefly: BODIPY-FL labelled GST photo-released from magnetic beads and captured on anti-HSV antibody coated substrate; against the minus DNA blank.
In experiment [3] the target is human dihydrofolate reductase (DHFR), cell-free expressed with C-terminal HSV and polyhistidine epitope tags (human) (UniProt P00374). Nature of the experiment: antibody-protein complex photo-released from beads, held on nickel chelate plate by the protein's polyhistidine tag; bound anti-HSV antibody read with anti-[mouse IgG] HRP; against the minus DNA negative control.

Experiment [4] concerns the target human glutathione-s-transferase A2 (GST A2), cell-free expressed from pETBlue-2 with C-terminal HSV epitope tag and polyhistidine tag (human) (UniProt P09210). The experiment is described as above.
The target is the same in experiment [5]. Briefly: cell-free expressed HSV-tagged GST captured on anti-HSV PC-antibody NeutrAvidin agarose beads; fractions quantified by fluorescence SDS-PAGE.
Experiment [6] deals with human alpha-tubulin, cell-free expressed with C-terminal HSV epitope tag and polyhistidine tag (human) (UniProt P50607). Nature of the experiment: protein adsorbed to polystyrene 96-well plate, anti-HSV-AP chemiluminescence; against the minus DNA negative control.
The target of experiment [7] is human p53 oncoprotein (cellular tumor antigen p53), cell-free expressed from pETBlue-2 with C-terminal HSV epitope tag and polyhistidine tag (human) (UniProt P04637). The experiment is described as above.

Chain of human glutathione-s-transferase A2 (GST A2), cell-free expressed from pETBlue-2 with C-terminal HSV epitope tag and polyhistidine tag (human) (P09210 other isoform, or with tags, fused parts or gaps): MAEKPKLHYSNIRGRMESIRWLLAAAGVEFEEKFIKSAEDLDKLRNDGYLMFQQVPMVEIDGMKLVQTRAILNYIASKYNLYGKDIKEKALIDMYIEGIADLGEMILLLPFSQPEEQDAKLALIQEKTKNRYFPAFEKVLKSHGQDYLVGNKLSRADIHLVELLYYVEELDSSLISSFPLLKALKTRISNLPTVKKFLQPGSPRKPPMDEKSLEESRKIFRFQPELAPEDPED
Chain of wild-type human APC segment 3 of Exon 15 (codons 1,099 to 1,696) with N-terminal VSV-G and HSV epito (human) (P25054 other isoform, or with tags, fused parts or gaps limits assumed): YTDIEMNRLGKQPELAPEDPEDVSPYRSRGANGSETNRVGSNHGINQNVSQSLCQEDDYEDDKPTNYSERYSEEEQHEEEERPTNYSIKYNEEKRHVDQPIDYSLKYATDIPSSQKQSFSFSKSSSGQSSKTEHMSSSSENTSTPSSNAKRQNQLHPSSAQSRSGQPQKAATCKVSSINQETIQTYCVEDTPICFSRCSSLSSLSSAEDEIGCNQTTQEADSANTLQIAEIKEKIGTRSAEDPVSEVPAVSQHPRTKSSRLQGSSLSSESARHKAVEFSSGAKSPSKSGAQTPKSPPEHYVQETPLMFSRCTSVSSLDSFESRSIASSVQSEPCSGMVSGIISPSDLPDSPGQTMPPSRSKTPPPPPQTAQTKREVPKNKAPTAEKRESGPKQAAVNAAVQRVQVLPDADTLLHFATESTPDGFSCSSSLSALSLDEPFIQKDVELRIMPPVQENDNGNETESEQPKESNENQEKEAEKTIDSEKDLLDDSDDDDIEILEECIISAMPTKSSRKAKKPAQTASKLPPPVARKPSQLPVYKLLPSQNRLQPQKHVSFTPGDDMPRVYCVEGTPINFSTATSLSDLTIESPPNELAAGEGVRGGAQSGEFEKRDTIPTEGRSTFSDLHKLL

For “anti-VSV antibody conjugated to the Cy3 fluorophore (clone P5D4; Sigma-Aldrich, St. Louis, Mo.)”, the signal to noise ratio in experiment [1] was 186 :1.
Consider “mouse monoclonal anti-HSV tag antibody (EMD Biosciences, Inc., San Diego, Calif.)”, for which the signal to noise ratio is 9 :1 in experiment [2]; 19 :1 in experiment [3]; 108 :1 in experiment [4]; 140 :1 in experiment [6]; 609 :1 in experiment [7]. Moreover, in experiment [5], the percent of total GST bound worked out at 75%. The percent of total GST not bound in experiment [5] stood at 25%.

The record behind these values is patent US20180017550A1.
